According to PMC10622577, “Structural basis for stabilisation of the RAD51 nucleoprotein filament by BRCA2” (Nature Communications, 2023):
“Also recorded” adds a separate entry of the source. Where no end group is shown, it is not given here. MBP = maltose-binding protein (N-terminal fusion tag)

How the values were obtained:
RAD51–ssDNA NPF = assay: EMSA of MBP-fusion TR2 mutants binding the RAD51-ssDNA NPF; design: species or system human; details: for binding of MBP-TR2 mutant to the RAD51 NPF: ssDNA 60 nt, His6-MBP-TR2 5 min, room temperature, 25 mM HEPES pH 7.5, 150 mM NaCl, 2 mM ATP, 5 mM CaCl2, repeated once
Description: The local resolution at the TR2 site was lower than for the global map, which complicated the model fitting for the peptide. Fitting with the correct sequence register was guided by the density of the large side chains in the highly conserved TR2 region 3296-KAFQPPR-3302 (Fig. 3A). To validate our molecular model of BRCA2 TR2 association with the RAD51 NPF, we performed a mutational analysis of the RAD51–TR2 interface, targeting residues that are predicted by the structure to be important for the RAD51-TR2 interaction (Fig. 4A, B). We generated TR2 mutants as Maltose-Binding Protein (MBP) fusion proteins (Supplementary Fig. 1) and measured by EMSA their ability to bind the RAD51 NPF.
Fig. 4 Structure-based mutational analysis of the BRCA2 TR2-RAD51 interface. A Multiple sequence alignment of BRCA2 TR2 sequences, coloured according to residue type (Hse: Homo sapiens; Gga: Gallus gallus; Xla: Xenopus laevis; Dre: […]). B Drawing of TR2 and RAD51 amino acids targeted for mutagenesis. Drawing style as in D–F of Fig. 3. C–E EMSA analysis of RAD51–ssDNA NPF binding by MBP-fusion TR2 mutants K3296A, Q3299A, R3302A (C); 3A (K3296A, Q3299, R3302A), 3D (K3296D, Q3299D, R3302D) (D); S3291A, F3298A (E). The TR2 peptide was used as a control. EMSA experiments repeated once. Source data are provided as a Source Data file.
An E.coli codon-optimised gene fragment encoding residues D3260 to Y3308 of human BRCA2 was synthesised (IDT) with flanking BamHI and HindIII restriction sites and ligated into the pMAT11 expression vector[44] (Addgene plasmid #112592) to express BRCA2 TR2 as a dual-tag His6-MBP (Maltose-Binding Protein) fusion protein. pMAT11 constructs for expression of BRCA2 TR2 mutants S3291A, F3298A, K3296A, Q3299A, R3302A, the triple K3296, Q3299, […] alanine (3A) and aspartic acid (3D) mutants were produced in the same way as the wild-type construct.
All His6-MBP-BRCA2 TR2 fusion proteins were expressed and purified in an identical manner. pMat11-His6-MBP-TR2 constructs were transformed into E.coli BL21(DE3)Rosetta2 and transformed cells were used to inoculate 2YT growth medium supplemented with 50 μg/ml ampicillin. Cells were cultured until an OD600 reading of 0.7 before induction with 0.5 mM IPTG. Cell pellets were resuspended in resuspension buffer and sonicated to lyse cells in the presence of EDTA-free protease inhibitor. Cell lysate supernatant was loaded on a 5-ml HisTrap HP column pre-equilibrated with His Buffer A before elution in 40% His Buffer B. Fractions containing the His6-MBP-BRCA2 TR2 protein were pooled and purified further by size-exclusion chromatography using a 16/600 Superdex S75 pg (Cytiva) column pre-equilibrated in storage buffer. To minimise the presence of proteolytically degraded protein, a single fraction at the front of the elution peak containing His6-MBP-TR2 was retained and concentrated to at least 100 μM before flash freezing in liquid nitrogen and storage at −80 °C.
To assess RAD51 nucleoprotein (NPF) formation, wild-type and mutant RAD51 proteins were incubated with DNA in buffer: 25 mM HEPES pH 7.5, 150 mM NaCl, 2 mM DTT, 2 mM ATP, 5 mM CaCl2 for 15 minutes at room temperature. For filament binding of the TR2 peptide or His6-MBP-TR2 protein, the RAD51 NPFs were incubated with TR2 for further 5 minutes at room temperature. For filament binding of BRC4, the BRC4 peptide was pre-mixed with RAD51 for 10 minutes at room temperature before addition of DNA. For experiments with mono-streptavidin (mSA)-capped DNA, mSA (Sigma) was added in 5× molar excess of biotin labels for 15 minutes at room temperature prior to the addition of RAD51. Concentrations are provided in figures and DNA sequences for each experiment are reported in Supplementary Table 1.
Before electrophoresis, samples were mixed with a 0.5:1 volume of 50% (w/v) sucrose solution and analysed on a pre-run 0.5% (w/v) agarose gel in 0.5× TB buffer at 35 V for 2.5 hours at 4 °C. […]

RAD51;BRCA2 TR2 peptide [1] = target: T1, RAD51;BRCA2 TR2 peptide (Homo sapiens;Homo sapiens, UniProt Q06609;P51587 1-339;, |); assay: cryo-EM micrographs; TR2 1:0.5; filament bundling; EMSA: 25 mM HEPES pH 7.5, 150 mM NaCl, 2 mM DTT, 2 mM ATP, 5 mM CaCl2, room temperature; SPR: 25 mM HEPES pH 7.4, 100 mM NaCl, 2 mM DTT, 2 mM ATP, 5 mM CaCl2, 5 mM MgCl2; details: tags: untagged (co-expressed with His6-MBP-BRC4, pMBP4-RAD51);
RAD51;BRCA2 TR2 peptide [2] = target: T1, RAD51;BRCA2 TR2 peptide; assay: SPR; TR2 on preformed filament; ATP, Ca2+, Mg2+; EMSA: 25 mM HEPES pH 7.5, 150 mM NaCl, 2 mM DTT, 2 mM ATP, 5 mM CaCl2, room temperature; SPR: 25 mM HEPES pH 7.4, 100 mM NaCl, 2 mM DTT, 2 mM ATP, 5 mM CaCl2, 5 mM MgCl2; details: tags: untagged (co-expressed with His6-MBP-BRC4, pMBP4-RAD51);
RAD51;BRCA2 TR2 peptide [3] = target: T1, RAD51;BRCA2 TR2 peptide; assay: EMSA; TR2 enhances filament; ATP, Ca2+; EMSA: 25 mM HEPES pH 7.5, 150 mM NaCl, 2 mM DTT, 2 mM ATP, 5 mM CaCl2, room temperature; SPR: 25 mM HEPES pH 7.4, 100 mM NaCl, 2 mM DTT, 2 mM ATP, 5 mM CaCl2, 5 mM MgCl2; details: tags: untagged (co-expressed with His6-MBP-BRC4, pMBP4-RAD51);
human RAD51, wild type [4] = target: T2, human RAD51, wild type (human, UniProt Q06609 1-339); assay: native gel or EMSA; TR2 peptide titrated on RAD51 NPFs pre-formed on fluorescein-labelled ss- or dsDNA; 25 mM HEPES pH 7.5, 150 mM NaCl, 2 mM DTT, 2 mM ATP, 5 mM CaCl2, room temperature, TR2 added for 5 minutes; 0.5% agarose gel at 4 °C; details: both partners purified
T2 construct: RAD51, human DNA-strand exchange protein; In all assays RAD51 stood as a nucleoprotein filament on ss- or dsDNA with ATP and CaCl2; probably the whole, untagged protein; also called WT RAD51; RAD51 NPF; source: E. coli BL21(DE3)Rosetta2, co-expressed with His6-MBP-BRCA2 BRC4, purified (HisTrap, heparin, SEC)
T2 sequence: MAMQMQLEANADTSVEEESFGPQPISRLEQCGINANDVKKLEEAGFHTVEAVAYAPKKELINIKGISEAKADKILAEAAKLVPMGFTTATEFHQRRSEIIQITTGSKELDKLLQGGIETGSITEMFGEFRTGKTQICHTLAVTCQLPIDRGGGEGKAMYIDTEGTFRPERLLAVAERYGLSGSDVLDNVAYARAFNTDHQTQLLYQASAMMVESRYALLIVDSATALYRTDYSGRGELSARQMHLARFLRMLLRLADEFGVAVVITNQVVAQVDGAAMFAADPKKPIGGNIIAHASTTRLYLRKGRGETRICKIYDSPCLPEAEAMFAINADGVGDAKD

human RAD51, wild type [5] = target: T2, human RAD51, wild type; assay: native gel or EMSA; His6-MBP-TR2 fusion proteins added for 5 minutes to RAD51–ssDNA NPFs; 25 mM HEPES pH 7.5, 150 mM NaCl, 2 mM DTT, 2 mM ATP, 5 mM CaCl2, room temperature; 0.5% agarose gel; details: both partners purified

F3298A: His6-MBP fusion protein of BRCA2 TR2 mutant F3298A ({His6-MBP}-DDQKNCKKRRALDFLSRLPLPPPVSPICTFVSPAAQKAAQPPRSCGTKY; cysteine pairing not given here)
binding of MBP-TR2 mutant to the RAD51 NPF (RAD51–ssDNA NPF): abolished TR2 binding to the RAD51 NPF; also recorded: complete loss of TR2 binding

K3296A: His6-MBP fusion protein of BRCA2 TR2 mutant K3296A ({His6-MBP}-DDQKNCKKRRALDFLSRLPLPPPVSPICTFVSPAAQAAFQPPRSCGTKY; cysteine pairing not given here)
binding of MBP-TR2 mutant to the RAD51 NPF (RAD51–ssDNA NPF): modest decrease in filament binding

Q3299A: His6-MBP fusion protein of BRCA2 TR2 mutant Q3299A ({His6-MBP}-DDQKNCKKRRALDFLSRLPLPPPVSPICTFVSPAAQKAFAPPRSCGTKY; cysteine pairing not given here)
binding of MBP-TR2 mutant to the RAD51 NPF (RAD51–ssDNA NPF): increased association with the filament

R3302A: His6-MBP fusion protein of BRCA2 TR2 mutant R3302A ({His6-MBP}-DDQKNCKKRRALDFLSRLPLPPPVSPICTFVSPAAQKAFQPPASCGTKY; cysteine pairing not given here)
binding of MBP-TR2 mutant to the RAD51 NPF (RAD51–ssDNA NPF): modest decrease in filament binding

S3291A: His6-MBP fusion protein of BRCA2 TR2 mutant S3291A ({His6-MBP}-DDQKNCKKRRALDFLSRLPLPPPVSPICTFVAPAAQKAFQPPRSCGTKY; cysteine pairing not given here)
binding of MBP-TR2 mutant to the RAD51 NPF (RAD51–ssDNA NPF): drastically reduced
residual binding of MBP-TR2 mutant to the RAD51 NPF (RAD51–ssDNA NPF; ssDNA, Fig. 4E): still able to associate with the filament; also recorded: retains a degree of binding to the filament

TTTTTTTTTTTCGTGTGGTACTTTTTTTTTTT (ssDNA) [32-nt ssDNA Cy5]
binding result (RAD51;BRCA2 TR2 peptide [1]; label: 5' Cy5): binds

B1: 60-nt ssDNA biotin (ssDNA)
DNA: ATGGTGTGTGTAGGTTAATGTGAGGAGGAGAGGTGAAGAAGGAGGAGAGAAGAAGGAGGC
binding result (RAD51;BRCA2 TR2 peptide [2]; label: 5' biotin): binds

B2: 60-nt ssDNA FAM (ssDNA)
DNA: ATGGTGTGTGTAGGTTAATGTGAGGAGGAGAGGTGAAGAAGGAGGAGAGAAGAAGGAGGC
binding result (RAD51;BRCA2 TR2 peptide [3]; label: 5' FAM): binds

B3: 60-bp dsDNA biotin (dsDNA)
DNA 1: ATGGTGTGTGTAGGTTAATGTGAGGAGGAGAGGTGAAGAAGGAGGAGAGAAGAAGGAGGC
DNA 2: GCCTCCTTCTTCTCTCCTCCTTCTTCACCTCTCCTCCTCACATTAACCTACACACACCAT
binding result (RAD51;BRCA2 TR2 peptide [2]; label: 5' biotin on strand 1, blunt): binds

B4: 60-bp dsDNA FAM (dsDNA)
DNA 1: ATGGTGTGTGTAGGTTAATGTGAGGAGGAGAGGTGAAGAAGGAGGAGAGAAGAAGGAGGC
DNA 2: GCCTCCTTCTTCTCTCCTCCTTCTTCACCTCTCCTCCTCACATTAACCTACACACACCAT
binding result (RAD51;BRCA2 TR2 peptide [3]; label: 5' FAM on strand 1, blunt): binds

B5: 50-nt dsDNA Cy3 (dsDNA)
DNA 1: CCGACTGACGCTCAACATAGGTACCACACGGCGAGCTCGATGCACCTCCA
DNA 2: TGGAGGTGCATCGAGCTCGCGACAAACCTTCTATGTTGAGCGTCAGTCGG
binding result (RAD51;BRCA2 TR2 peptide [1]; label: 3' Cy3 on strand 1, blunt ends, internal mismatched bubble about 10 nt): binds

B6: BRCA2 TR2 peptide spanning amino acids 3260 to 3308 (peptide, UniProt P51587 3260-3308, looked up)
peptide: DDQKNCKKRRALDFLSRLPLPPPVSPICTFVSPAAQKAFQPPRSCGTKY
notes: Only residues 3289 to 3304 are modelled in the PDB entries; source: synthetic peptide (synthesised commercially)
binding result (human RAD51, wild type [4]): binds

B7: His6-MBP-BRCA2 TR2 K3296A (domain or fragment, human, UniProt P51587 3260-3308, looked up)
chain: DDQKNCKKRRALDFLSRLPLPPPVSPICTFVSPAAQAAFQPPRSCGTKY
notes: BRCA2, human, TR2 motif, residues D3260 to Y3308; source: E. coli BL21(DE3)Rosetta2, purified (HisTrap, SEC); not shown: His6, N-terminal, kept; MBP, N-terminal, kept
binding result (human RAD51, wild type [5]): binds

B8: His6-MBP-BRCA2 TR2 Q3299A (domain or fragment, human, UniProt P51587 3260-3308, looked up)
chain: DDQKNCKKRRALDFLSRLPLPPPVSPICTFVSPAAQKAFAPPRSCGTKY
notes: as for B7
binding result (human RAD51, wild type [5]): binds

B9: His6-MBP-BRCA2 TR2 R3302A (domain or fragment, human, UniProt P51587 3260-3308, looked up)
chain: DDQKNCKKRRALDFLSRLPLPPPVSPICTFVSPAAQKAFQPPASCGTKY
notes: as for B7
binding result (human RAD51, wild type [5]): binds
